The text below walks through data of paper PMC13061415.

Sequences and labels used below:
B1: Twa1 CTLH-CRA domain (58-190), wild type [mouse] / muskelin CTLH-CRA domain (205–735 Δ248–625) [rat] (parent)
chain 1: EHPMLTDMHDKLVLKGDFDACEELIEKAVNDGLFNQYISQQEYPSKDYLLRHCKYLIRKHRFEEKAQMDPLSALKYLQNDLYITVDHSDPEETKEFQLLASALFKSGSDFTALGFSDVDHTYAQRTQLFDTLVNFFPDSMTPPKGNLVDLITL
chain 2: SVDLETLDERIKIREMILKGQIQEAIALINSLHPELLDTNRYLYFHLQQQHLIELIRQRETEAALEFAQTQLAEQGEESRECLTEMERTLALLAFDSPEESPFGDLLHMMQRQKVWSEVNQAVLDYENRESTP

Variants of B1 are the subject of the first test. The experiment in a line: ITC. Conditions: with muskelin CTLH-CRA domain (205–735 Δ248–625) [rat]; 160 µM muskelin + 16 µM Twa1 mutants.
Turning to chain 2 A68G Q69R A73Q L83K E87K L90F F95Y F103V, the equilibrium dissociation constant (Kd) was found to be 340 nM and the screen value amounted to 0.88.

The test is the same for the next values; noted with them: with muskelin CTLH-CRA domain (205–735 Δ248–625) [rat]; 160 µM muskelin + 16 µM Twa1 mutants; read off a plot.
Consider chain 2 A68G Q69R A73Q L83K E87K L90F F95Y F103V, for which the screen value is -9.2 kcal/mol.
